The values that follow come from article PMC7078210.

Broadly, the stoichiometry N is a count of units in the complex or per binding partner.

The target of data set [1] is NtMOC1 (N108-S275, I112V/Q162K/E235Q/E239Q) (Nicotiana tabacum). The experiment in a line: crystal structure; HJ-free (apo) MOC1, 10 mg/ml with 1 mM MgCl2, sitting-drop vapor diffusion at 18 °C.
Data set [2] shares this target. Briefly: crystal structure; MOC1 with 1 mM MgCl2 mixed with Holliday junction DNA (9-bp arms) at a molar ratio of 1:1.2, co-crystallised.
Data set [3] concerns the target T1, NtMOC1 E175A (Nicotiana tabacum, UniProt A0A1S4BMC2 108-275, E175A).
T1 sequence: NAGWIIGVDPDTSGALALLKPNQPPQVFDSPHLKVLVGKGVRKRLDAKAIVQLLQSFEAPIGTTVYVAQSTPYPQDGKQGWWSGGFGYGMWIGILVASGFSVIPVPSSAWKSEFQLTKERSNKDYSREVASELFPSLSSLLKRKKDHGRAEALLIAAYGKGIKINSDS
Briefly: EMSA; 5 mM EDTA; EMSA: 50 mM Tris-HCl pH 8.0, 1 mM DTT, 5 mM EDTA, 200 ng/ml heparin (so in the source), 10% glycerol, 25 C, 30 min; HJ 250 nM, protein 0-1000 nM; 6% native PAGE, no MgCl2. The conditions noted are these: protein: recombinant; tags: 6xHis N-term, removed (DrICE); chain copies: 2; label: none (GelRed stain); four-way junction of 4 strands, 28 nt each, 2-bp homologous core. A general note: Mobility shift assays separate free from complexed probe on a gel.

Data set [4] addresses T2, NtMOC1 D118A (Nicotiana tabacum, UniProt A0A1S4BMC2 108-275, D118A).
T2 sequence: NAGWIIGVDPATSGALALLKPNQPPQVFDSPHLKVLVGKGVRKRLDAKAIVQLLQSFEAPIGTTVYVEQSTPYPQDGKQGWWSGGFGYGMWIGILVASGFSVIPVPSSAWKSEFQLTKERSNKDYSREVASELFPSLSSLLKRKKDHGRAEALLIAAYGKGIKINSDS
The data set is described as above. The conditions noted are these: protein: recombinant; tags: 6xHis N-term, removed (DrICE); chain copies: 2; label: none (GelRed stain); four-way junction of 4 strands, 28 nt each, 2-bp homologous core.

The target of data set [5] is T3, NtMOC1 E258A (Nicotiana tabacum, UniProt A0A1S4BMC2 108-275, E258A).
T3 sequence: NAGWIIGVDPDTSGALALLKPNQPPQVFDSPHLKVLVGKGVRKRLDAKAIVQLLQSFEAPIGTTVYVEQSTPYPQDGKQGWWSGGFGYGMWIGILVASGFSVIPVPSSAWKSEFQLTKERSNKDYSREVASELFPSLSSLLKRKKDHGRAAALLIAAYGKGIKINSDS
The description is as above. The conditions noted are these: protein: recombinant; tags: 6xHis N-term, removed (DrICE); chain copies: 2; label: none (GelRed stain); four-way junction of 4 strands, 28 nt each, 2-bp homologous core.

The target of data set [6] is T4, NtMOC1 D116A (Nicotiana tabacum, UniProt A0A1S4BMC2 108-275, D116A).
T4 sequence: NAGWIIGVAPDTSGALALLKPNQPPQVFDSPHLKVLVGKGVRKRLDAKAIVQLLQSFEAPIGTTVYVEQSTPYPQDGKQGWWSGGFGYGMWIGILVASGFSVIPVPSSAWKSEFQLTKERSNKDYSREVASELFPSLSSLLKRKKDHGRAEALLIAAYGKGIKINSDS
Described as above. The conditions noted are these: protein: recombinant; tags: 6xHis N-term, removed (DrICE); chain copies: 2; label: none (GelRed stain); four-way junction of 4 strands, 28 nt each, 2-bp homologous core.

Data set [7] deals with T5, NtMOC1 D253A (Nicotiana tabacum, UniProt A0A1S4BMC2 108-275, D253A).
T5 sequence: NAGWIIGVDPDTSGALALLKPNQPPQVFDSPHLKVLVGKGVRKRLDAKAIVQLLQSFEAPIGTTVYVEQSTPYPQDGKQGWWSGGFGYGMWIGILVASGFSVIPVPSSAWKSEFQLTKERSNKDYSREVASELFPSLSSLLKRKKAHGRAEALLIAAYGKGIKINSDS
The data set is described as above. The conditions noted are these: protein: recombinant; tags: 6xHis N-term, removed (DrICE); chain copies: 2; label: none (GelRed stain); four-way junction of 4 strands, 28 nt each, 2-bp homologous core.

Data set [8] addresses T6, NtMOC1 Y180A (Nicotiana tabacum, UniProt A0A1S4BMC2 108-275, Y180A).
T6 sequence: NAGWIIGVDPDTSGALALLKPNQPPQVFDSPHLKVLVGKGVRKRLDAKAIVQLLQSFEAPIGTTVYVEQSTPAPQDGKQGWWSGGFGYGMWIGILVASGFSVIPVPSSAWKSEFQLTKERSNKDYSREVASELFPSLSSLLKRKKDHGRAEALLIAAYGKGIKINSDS
The experiment in a line: EMSA; 5 mM EDTA; little effect; EMSA: 50 mM Tris-HCl pH 8.0, 1 mM DTT, 5 mM EDTA, 200 ng/ml heparin (so in the source), 10% glycerol, 25 C, 30 min; HJ 250 nM, protein 0-1000 nM; 6% native PAGE, no MgCl2. The conditions noted are these: protein: recombinant; tags: 6xHis N-term, removed (DrICE); chain copies: 2; label: none (GelRed stain); four-way junction of 4 strands, 28 nt each, 2-bp homologous core.

As for “NtMOC1 (N108-S275, I112V/Q162K/E235Q/E239Q) (domain or fragment)”, the stoichiometry N in data set [1] and in data set [2] was 2 in each case.

B1: X2 (CCGG) HJ (structured_DNA)
DNA 1: GGGCAAAGATGTCCCTCTGTTGTAATCG
DNA 2: CCAGTGCCTTGCTGGGACATCTTTGCCC
DNA 3: TAGACAGCTCCATCCAGCAAGGCACTGG
DNA 4: CGATTACAACAGAGGATGGAGCTGTCTA
As to B1, the binding result in data set [3], in data set [4], in data set [5], in data set [6], in data set [7] and in data set [8] was “binds” throughout.
